Data: patent US11549134B2, “Modified amadoriase and method for producing the same, agent for improving surfactant resistance of amadoriase and composition for measuring HbA1c using the same” (Kikkoman Corporation, priority 2013, dated 2023)

Columns and labels:
[1] = Surfactant resistance (residual activity) of CFP-D multiple variants, 0.04% CTAC; type: biochemical; conditions: 30°C, 5 minutes, crude enzyme
Description: An amadoriase crude enzyme solution or an amadoriase purified sample is diluted with a 30 mM MES/21 mM Tris buffer solution (pH6.5) so as to have a concentration of about 1.0 U/ml. To this, CTAC (for example, manufactured by Tokyo Kasei Kogyo Co., Ltd.) is added so as to obtain a final concentration 0.01% (w/v) or 0.04%. The resultant mixture is heated at 30° C. for 5 minutes. After heating, the mixture is diluted double with a 10 mM phosphate buffer (pH7.0) containing 0.15% BSA to prepare a sample. The enzyme activities of the sample before and after a surfactant treatment are measured by the method described in Section B above. The ratio of activity of the sample after the surfactant treatment relative to the activity of the sample before the surfactant treatment (regarded as 100), i.e., the residual activity (%), is obtained. In this manner, surfactant resistance is evaluated. […]

[2] = Surfactant resistance (residual activity), 0.04% SDS; type: biochemical; conditions: 30 mM MES/21 mM Tris buffer (pH 6.5)
Description: An amadoriase crude enzyme solution or an amadoriase purified sample is diluted with a 30 mM MES/21 mM Tris buffer solution (pH6.5) so as to have a concentration of about 1.0 U/ml. To this, CTAC (for example, manufactured by Tokyo Kasei Kogyo Co., Ltd.) is added so as to obtain a final concentration 0.01% (w/v) or 0.04%. The resultant mixture is heated at 30° C. for 5 minutes. After heating, the mixture is diluted double with a 10 mM phosphate buffer (pH7.0) containing 0.15% BSA to prepare a sample. The enzyme activities of the sample before and after a surfactant treatment are measured by the method described in Section B above. […] In this manner, surfactant resistance is evaluated.
The stability of CFP-D was evaluated using sodium dodecyl sulfate (hereinafter indicated with “SDS”) in place of the surfactant CTAC used in Example 2. The surfactant resistance of the modified amadoriases was evaluated in accordance with a measurement method for surfactant resistance according to Example 1 although under surfactant treatment conditions in which the amadoriases were each diluted in a 30 mM MES/21 mM Tris buffer solution (pH 6.5) and mixed with 0.04% SDS. In this respect, it was confirmed that when the warmed sample was again measured for activity 30 minutes after 2-fold dilution in a BSA solution, there was no change in the activity value.

[3] = Surfactant resistance (residual activity) of purified enzymes with various surfactants; type: biochemical; conditions: 20 mM potassium phosphate pH 7.0, purified enzyme
Description: An amadoriase crude enzyme solution or an amadoriase purified sample is diluted with a 30 mM MES/21 mM Tris buffer solution (pH6.5) so as to have a concentration of about 1.0 U/ml. To this, CTAC (for example, manufactured by Tokyo Kasei Kogyo Co., Ltd.) is added so as to obtain a final concentration 0.01% (w/v) or 0.04%. The resultant mixture is heated at 30° C. for 5 minutes. After heating, the mixture is diluted double with a 10 mM phosphate buffer (pH7.0) containing 0.15% BSA to prepare a sample. The enzyme activities of the sample before and after a surfactant treatment are measured by the method described in Section B above. The ratio of activity of the sample after the surfactant treatment relative to the activity of the sample before the surfactant treatment (regarded as 100), i.e., the residual activity (%), is obtained. In this manner, surfactant resistance is evaluated.
Using various surfactants, the stability of the purified enzymes CFP-T7, CFP-D2, and CFP-D7 obtained as described above was evaluated. The surfactant resistance of the modified amadoriases was evaluated in accordance with a measurement method for surfactant resistance according to Example 1 although under surfactant treatment conditions in which the amadoriases were each diluted in a 20 mM potassium phosphate buffer solution (pH 7.0) and mixed with any of various concentrations of the surfactants. In this respect, it was confirmed that when the warmed sample was again measured for activity 30 minutes after 2-fold dilution in a BSA solution, there was no change in the activity value.

CFP-T7 = assay: Surfactant resistance of amadoriase during addition of each stabilizer (CFP-T7); type: biochemical, genus Coniochaeta; conditions: Stabilizer None, 500 mM HEPES (pH 7.0), 0.01% CTAC
Description: In the above surfactant resistance measuring method, various stabilizers are added and the residual activity of an amadoriase is measured in order to evaluate the effect of the stabilizers. […] The concentration sufficient to provide a buffer capacity to a solution refers to the concentration at which pH is maintained within a predetermined range (for example pH5 to 10, pH6 to 8) without having pH change due to other reagents added to the solution. A concentration insufficient to provide a buffer capacity to a solution refers to the concentration at which pH changes by addition of other reagents to the solution and pH falls outside a particular range. These concentrations vary depending upon the type and amount of other reagents to be added to a solution; however, a person skilled in the art can appropriately determine the concentration by conventional methods. Other conditions and procedure can be the same as in the above surfactant resistance measuring method.
It was studied whether or not the addition of any of various stabilizers enhanced the surfactant resistance of an amadoriase. Phosphoric acid, a tricarboxylic acid (e.g., citric acid), a dicarboxylic acid (e.g., malic acid, maleic acid, citraconic acid, malonic acid, glutaric acid, or tartaric acid), a monpcarboxylic acid (e.g., acetic acid), MES, MOPS, MOPSO, or ammonium sulfate was used as a stabilizer. As a Comparative Example, CHES was used. To prevent change in pH when adding the stabilizer, 500 mM HEPES (pH 7.0) was used as a buffer solution; CFP-T7 purified as described above was used as a sample; the final concentration of CTAC was set at 0.01%; and any of the stabilizers was further added to evaluate the surfactant resistance of CFP-T7 according to the measurement method for surfactant resistance in Example 1. Using a 500 mM HEPES (pH 7.0) buffering agent and CFP-D2 purified as described above as a sample, any of the stabilizers was further added, and the surfactant resistance of CFP-D2 was evaluated according to the measurement method for surfactant resistance in Example 1 although under more harsh surfactant treatment conditions in which the final concentration of CTAC was set at 0.08% and the treatment temperature at 37° C.

B1: CFP-T7: amadoriase derived from the genus Coniochaeta, SEQ ID NO: 1; triple variant with mutations at positions 272, 302 and 388 (protein, listed as Coniochaeta sp.)
chain: MTSNRADTRVIVVGGGGTIGSSTALHLVRSGYAPANITVLDTFEIPSAQSAGHDLNKIMGIRLRNKVDLQMSLEARQMWKEDELFQPFFHNTGRMDCEHTPEGIEDLKKQYQALHDAGAGLEKTHAWLDNEDEILSKMPLLQRDQIQGWKAIWSQDGGWLAAAKAINAIGQFLKERGVKFGFGGAGSFKQPLFDDEGTTCIGVETADGTKYYADKVVLAAGAWSPTLVDLEDQCCSKAWVYAHIQLTPEEAAEYKGVPVVYNGEFGFFFEPDEFGVIKVCDEFPGFSRFKEHQPYGAPSPKRISVPRSHAKHPTDTYPDASEVSIKKAIATFLPRFQDKELFNRALCWCTDTADAALLMCEHPKWKNFILATGDSGHSFKILPNVGKYVVELIEGRLPEEMAYQWRWRPGGDALKSRRAAPPKDLADMPGWKHDPKL
- Residual Activity(%) [1]: 2.27%
- Residual Activity(%) [2]: 2.76%
- Residual Activity(%) ([3]; Benzylcetyldimethyl ammonium Chloride (BCDAC) 0.04%): 1.4%
- Residual Activity(%) ([3]; Benzyldodecyldimethyl ammonium Bromide (BDDAB) 0.10%): 1.4%
- Residual Activity(%) ([3]; Benzyltetradecyldimethyl ammonium Chloride (BDTAC) 0.04%): 0.7%
- Residual Activity(%) ([3]; Dodecylpyridinium Chloride (1-DPC) 0.16%): 3.4%
- Residual Activity(%) ([3]; Dodecyltrimethylammonium Bromide (DTAB) 0.30%): 12.2%
- Residual Activity(%) ([3]; Hexadecylpyridinium Bromide (1-CPB) 0.04%): 0.7%
- Residual Activity(%) ([3]; Hexadecylpyridinium Chloride (1-CPC) 0.04%): 1.4%
- Residual Activity(%) ([3]; Hexadecyltrimethylammonium Chloride (CTAC) 0.04%): 2.3%
- Residual Activity(%) ([3]; N-Cetyl-4-methylpyridinium Chloride (4Me-1-CPC) 0.04%): 1.5%
- Residual Activity(%) ([3]; Octadecyltrimethylammonium Bromide (STAB) 0.01%): 59.7%
- Residual Activity(%) ([3]; Octadecyltrimethylammonium Chloride (STAC) 0.02%): 49.3%
- Residual Activity(%) ([3]; Octyltrimethylammonium Bromide (OTAB) 0.80%): 87.7%
- Residual Activity(%) ([3]; Octyltrimethylammonium Chloride (OTAC) 1.20%): 94.1%
- Residual Activity(%) ([3]; Tetradecyltrimethylammonium Bromide (TTAB) 0.04%): 31.7%
- Residual Activity(%) ([3]; Tetradecyltrimethylammonium Chloride (TTAC) 0.04%): 4.1%
- Residual Activity(%) ([3]; Tributylhexadecyl phosphonium Bromide (TBCPB) 0.04%): 3.1%
- CFP-T7 Residual Activity (%) (CFP-T7; Table 9-1): 4.7%
- CFP-T7 Residual Activity (%) (CFP-T7; Table 9-2): 3.1%
